Source: publication PMC5430435

Columns and labels:
[1] = biological target: mouse LHR endogenously expressed in mLTC-1 cells (mouse (endogenous in mLTC-1)) (UniProt P30730)
[2] = biological target: hLH/CGR C-terminally fused to the BRET donor Rluc8 (human) (UniProt P22888)
[3] = biological target: human LH/CGR (wild type, without BRET fusion) (human) (UniProt P22888)

Chain of UniProt P30730 (P30730 27-700): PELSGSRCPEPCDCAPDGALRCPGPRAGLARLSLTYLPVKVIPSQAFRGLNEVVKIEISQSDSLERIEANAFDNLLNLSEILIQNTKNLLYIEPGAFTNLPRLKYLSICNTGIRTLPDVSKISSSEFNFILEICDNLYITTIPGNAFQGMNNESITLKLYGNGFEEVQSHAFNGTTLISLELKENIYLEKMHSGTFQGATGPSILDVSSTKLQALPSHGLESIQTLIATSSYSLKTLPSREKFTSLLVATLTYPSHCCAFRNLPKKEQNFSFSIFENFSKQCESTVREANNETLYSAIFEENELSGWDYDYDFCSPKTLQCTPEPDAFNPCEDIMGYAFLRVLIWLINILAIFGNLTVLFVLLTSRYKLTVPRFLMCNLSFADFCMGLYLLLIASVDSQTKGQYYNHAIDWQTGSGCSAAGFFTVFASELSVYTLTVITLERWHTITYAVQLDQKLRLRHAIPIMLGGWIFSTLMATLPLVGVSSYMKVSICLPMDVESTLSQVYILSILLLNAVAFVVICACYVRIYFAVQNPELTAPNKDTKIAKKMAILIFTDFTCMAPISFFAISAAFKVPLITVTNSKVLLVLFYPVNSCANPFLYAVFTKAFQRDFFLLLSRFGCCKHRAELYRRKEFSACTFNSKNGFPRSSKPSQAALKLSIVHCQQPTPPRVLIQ

Substance | Cre-reporter assay (pSOM-Luc luciferase) in mLTC-1 cells, 6 hours with increasing doses; EC50 [1] | cAMP (BRET sensor CAMYEL) in mLTC-1 cells, 30 minutes with increasing doses; EC50 [1] | cAMP (HTRF) in native mLTC-1 cells, 30 minutes with increasing doses; EC50 [1] | progesterone production by mLTC-1 cells (ELISA of supernatants), 3 hours with increasing doses; EC50 [1] | testosterone production by mLTC-1 cells (HTRF of supernatants), 3 hours with increasing doses; EC50 [1] | β-arrestin 2 recruitment (BRET between hLH/CGR-Rluc8 and yPET-β-arrestin 2) in HEK293 cells, 30 minutes with increasing doses; EC50 [2] | Cre-reporter assay (pSOM-Luc luciferase) in HEK293 cells expressing hLH/CGR, 6 hours with increasing doses; EC50 [3] | cAMP production (BRET sensor CAMYEL) in HEK293 cells expressing hLH/CGR, 30 minutes with increasing doses; EC50 [3]
recombinant human chorionic gonadotropin rhCG (Ovitrelle) (from UniProt P01215 25-116; P0DN86 21-165) (ligand) | 25 pM | 68.8 pM | 97.4 pM | 19.7 pM | 2.19 pM | 10300 pM | 37.5 pM | 17.6 pM
human recombinant luteinizing hormone rhLH (Luveris) (from UniProt P01215 25-116; P01229 21-141) (ligand) | 318 pM | 459 pM | 1980 pM | 306 pM | 29.1 pM | 129000 pM | 215 pM | 286 pM
